Experimental data as given in paper PMC10776578, “Epstein-Barr virus-driven B cell lymphoma mediated by a direct LMP1-TRAF6 complex” (Nature Communications, 2024).
Changes are numbered by the printed parent chain. Names and notes keep the numbering of the source. “Also recorded” adds a separate entry of the source.

B1: R392A (protein, UniProt Q9Y4K3 1-522, looked up, variant R392A)
TNF receptor-associated …: MSLLNCENSCGSSQSESDCCVAMASSCSAVTKDDSVGGTASTGNLSSSFMEEIQGYDVEFDPPLESKYECPICLMALREAVQTPCGHRFCKACIIKSIRDAGHKCPVDNEILLENQLFPDNFAKREILSLMVKCPNEGCLHKMELRHLEDHQAHCEFALMDCPQCQRPFQKFHINIHILKDCPRRQVSCDNCAASMAFEDKEIHDQNCPLANVICEYCNTILIREQMPNHYDLDCPTAPIPCTFSTFGCHEKMQRNHLARHLQENTQSHMRMLAQAVHSLSVIPDSGYISEVRNFQETIHQLEGRLVRQDHQIRELTAKMETQSMYVSELKRTIRTLEDKVAEIEAQQCNGIYIWKIGNFGMHLKCQEEEKPVVIHSPGFYTGKPGYKLCMALHLQLPTAQRCANYISLFVHTMQGEYDSHLPWPFQGTIRLTILDQSEAPVRQNHEEIMDAKPELLAFQRPTIPRNPKGFGYVTFMHLEALRQRTFIKDDTLLVRCEVSTRFDMGSLRREGFQPRSTDAGV
B2: F471A (protein, UniProt Q9Y4K3 1-522, looked up, variant F471A)
TNF receptor-associated …: B1 TNF receptor-associated … with A392R, F471A
B3: Y473A (protein, UniProt Q9Y4K3 1-522, looked up, variant Y473A)
TNF receptor-associated …: B1 TNF receptor-associated … with A392R, Y473A

Legend:
GST-LMP1 Q381E = experiment: AlphaScreen PPI, TRAF6 mutants binding to LMP1 Q381E; design: species or system Epstein-Barr virus; conditions: for interaction with LMP1 Q381E (in words): AlphaScreen PPI, four independent experiments; for TRAF6 binding to LMP1 Q-E, AlphaScreen (relative), Supplementary Figure 2 a: mean of wt = 100; for TRAF6 binding to LMP1 Q-E, AlphaScreen (relative), mean: wt = 100, mean of n = 4
Procedure: AlphaScreen experiments were performed in 96- or 384-well plates (Perkin Elmer, OptiPlate). In both assay formats, His-TRAF and GST-LMP1, GST-CD40, or GST-RANK proteins were incubated together in 40 µL of PBS (protein concentrations were calculated to the final reaction volume of 60 µL) supplemented with 0.5% BSA (Sigma, #A7030) and 0.1% Tween-20 (AppliChem, #A4974), for 1 h at room temperature (RT). If not indicated otherwise, standard protein concentrations were 300 nM for His-TRAF proteins and 100 nM for GST-LMP1 proteins. Ni-NTA-acceptor (Perkin Elmer, #6760619 C) and GST-acceptor (Perkin Elmer, # 6765300) beads were added each to a final concentration of 1–4 µg per mL in a final reaction volume of 60 µL and incubated for 1 h at RT in the dark. AlphaScreen PPI signals were measured in a CLARIOstar reader (BMG Labtech GmbH). […]
Supplementary Figure 2. LMP1 Q381E interaction with TRAF6 and additional controls to
experiments. Data are mean values ± SD of four independent experiments. Statistics: one -way
ANOVA. p-values: ****p ≤ 0.0001. Source data in the Source Data file. […]

HA-LMP1 = experiment: Coimmunoprecipitation of HA-LMP1 with Flag-TRAF6 mutants in HEK293 cells; format: cell-based, Epstein-Barr virus; conditions: for coprecipitated HA-LMP1 signal (densitometry), mean: HEK293, mean of n = 3; for interaction of TRAF6 mutants with LMP1 in HEK293 cells (in words): coimmunoprecipitation
Procedure: (§1) Immunoblotting was essentially performed as described. Proteins were detected on nitrocellulose membranes (Bio-Rad, #1620115) using the following primary antibodies: α−6*His-tag (clone 4A4 or 2F12, source: antibody facility of the Helmholtz Center Munich, hybridoma supernatants were used at a 1:10 dilution)[75], α-TRAF6 (H-274, Santa Cruz Biotech., #sc-7221, used at 1:1000), α-HA-tag (12CA5, Sigma-Aldrich, #11583816001, used at 0.4 µg per mL), α-IκBα (C-21, Santa Cruz Biotech., #sc-371, used at 1:500) and α-Tubulin (B-5-1-2, Santa Cruz Biotech., #sc-23948, used at 1:500). Horseradish peroxidase-coupled antibodies were used as secondary antibodies (Cell Signalling Technology, #7074 or #7076, respectively, both used at 1:5000). ECL signals were captured on X-ray films (Agfa Healthcare) and quantified by densitometry using the ImageJ software. Uncropped scans of immunoblots indicating molecular weights are provided in Supplementary Fig. 6.
HEK293 cells were transfected with 1 µg of pRK5-Flag TRAF6 plasmids, 1 µg of pCMV-HA-LMP1 and 6 µg of pRK5 per 10 cm cell culture dish using PolyFect Transfection Reagent (Qiagen, #301107) in RPMI without supplements. Cells were incubated with the plasmid transfection mix for 4 h before the medium was changed to RPMI full medium. After 24 h, the cells were lysed in NP40-lysis buffer (50 mM HEPES pH 7.5, 150 mM NaCl, 5 mM EDTA, 0.5 mM sodium orthovanadate, 0.5 mM PMSF, 0.5 mM sodium molybdate, and cOmplete protease inhibitor cocktail). Lysates were cleared by centrifugation at 15000 x g for 10 min at 4 °C, and the protein concentration was adjusted to 1 mg per mL. For immunoprecipitation 4 mL of lysate was incubated with the α-Flag antibody 6F7 (Sigma-Aldrich, #F3165; covalently coupled to protein-G-Sepharose) for 1 h at 4 °C. The beads were pelleted at 15000 x g for 30 seconds at 4 °C, washed twice with NP40-lysis buffer, and analyzed by immunoblotting.

[1] = test system: IκBα in TRAF6^-/- MEFs expressing NGFR-LMP1; experiment: IκBα degradation (canonical NF-κB) upon NGFR-LMP1 crosslinking; format: cell-based, mouse; conditions: IκBα immunoblot
Source text: Wild-type MEFs and derivatives thereof, TRAF6^-/- MEFs[79], and HeLa cells (obtained from the German Collection of Microorganisms and Cell Cultures, GCMC) were kept in Dulbecco’s modified Eagle’s medium (DMEM, Thermo Fischer, #41966-029). The cell lines HEK293 (obtained from GCMC), HA-LCL3[31], LCL721[80], BL41[81], LCL.NGFR-LMP1[35], and the mouse lymphomas LMP1-CL 37 and 40 were kept in Roswell Park Memorial Institute medium (RPMI 1640, Thermo Fisher, #21875-034). If not indicated otherwise, DMEM and RMPI were supplemented with 10% of fetal bovine serum (FBS; Sigma, #F7524), 1 mM L-glutamine (Thermo Fisher, #25030-024) and antibiotics (50 U per mL penicilline and 50 µg per mL streptomycin). LCL.NGFR-LMP1 cells were additionally supplemented with 100 nM sodium selenite and crosslinking primary and secondary antibodies (see below). All cells were kept at 37 °C in the presence of 5% CO2. Retroviral transduction of MEFs with NGFR-LMP1 and TRAF6 was carried out with the vectors pSF91-NGFR-LMP1-IRES-GFP-WPRE and pSF91-Flag-TRAF6-IRES-CFP-WPRE expressing TRAF6 wild-type or the indicated TRAF6 mutants. For NGFR-LMP1 crosslinking, 1 µg per mL of α-NGFR primary antibody (clone HB8737, ATTC) was added for 1 h to the cells. signalling was activated by further addition of 10 µg per mL of α-mouse IgG/IgM secondary antibody (Dianova, #115-005-068) for the given time points.
as §1, with “Horseradish peroxidase-coupled antibodies were used as secondary antibodies (Cell Signalling Technology, #7074 or #7076, respectively, both used at 1:5000).” left out, “Uncropped scans of immunoblots indicating molecular weights are provided in Supplementary Fig. 6.” left out

GST-RANK314-355 = experiment: AlphaScreen PPI, TRAF6 mutants binding to RANK; design: species or system human

Row | Molecule | interaction with LMP1 Q381E (in words) (GST-LMP1 Q381E) | TRAF6 binding to LMP1 Q-E, AlphaScreen (relative), Supplementary Figure 2 a (GST-LMP1 Q381E; replicate 1) | TRAF6 binding to LMP1 Q-E, AlphaScreen (relative), Supplementary Figure 2 a (GST-LMP1 Q381E; replicate 2) | TRAF6 binding to LMP1 Q-E, AlphaScreen (relative), Supplementary Figure 2 a (GST-LMP1 Q381E; replicate 3) | TRAF6 binding to LMP1 Q-E, AlphaScreen (relative), Supplementary Figure 2 a (GST-LMP1 Q381E; replicate 4) | TRAF6 binding to LMP1 Q-E, AlphaScreen (relative), mean (GST-LMP1 Q381E) | coprecipitated HA-LMP1 signal (densitometry), mean (HA-LMP1) | interaction of TRAF6 mutants with LMP1 in HEK293 cells (in words) (HA-LMP1) | rescue of canonical NF-κB activation by NGFR-LMP1 (in words) [1] | effect of TRAF6 mutation on binding to RANK (in words) (GST-RANK314-355; listed as TRAF6 R392A) | effect of TRAF6 mutation on binding to RANK (in words) (GST-RANK314-355; listed as Y471A)
1 | B1 | fail to interact with LMP1 Q381E; also recorded: unable to override the negative effect of R392A mutation | 8.4 | 4.1 | 6.1 | 4.8 | 5.85 | 2761976 | abolished the TRAF6 interaction with LMP1 | ineffective in rescuing canonical NF-κB activation | do not interact | –
2 | B2 | fail to interact with LMP1 Q381E; also recorded: unable to override the negative effect | 4.8 | 2.2 | 3.4 | 2.2 | 3.15 | 5862061 | abolished the TRAF6 interaction with LMP1 | ineffective in rescuing canonical NF-κB activation | – | abolished the interaction of TRAF6 with RANK; also recorded: do not bind to RANK
3 | B3 | – | – | – | – | – | – | 5322536 | abolished the TRAF6 interaction with LMP1 | ineffective in rescuing canonical NF-κB activation | – | –
